The text below walks through data of publication PMC9927002 (Frontiers in Immunology, 2023).

Conditions in all cases: one partner purified
The target of assay [1] is T1, full-length N protein of HKU1 (HCoV-HKU1 isolate N1, NC_006577.2, UniProt Q5MQC6).
T1 construct: also called HKU1 N; source: 293T cells, transfected (pcDNA3.1), in culture supernatant; not shown: D7-tag, C-terminal, kept
Description: ELISA.

The target in assay [2] is T2, full-length N protein of SARS-CoV (SARS-CoV, NC_004718.3 (Tor2), UniProt P59595).
T2 construct: also called SARS-CoV N; source: 293T cells, transfected (pcDNA3.1), in culture supernatant; not shown: D7-tag, C-terminal, kept
Description: ELISA.

The target of assay [3] is T3, full-length SARS-CoV-2 nucleocapsid (N) protein (SARS-CoV-2, NC_045512.2 (Wuhan-Hu-1), UniProt P0DTC9).
T3 construct: also called SARS-CoV-2 N protein; SARS-CoV-2 N/D7-Tag; not shown: D7-tag, C-terminal, kept
The experiment in a line: BLI.

B1: N5 (antibody, V domains shown)
VH: QVQLVQSGAEVKKPGSSVKVSCKASGGTFSSYAIGWVRQAPGQGLEWMGAIIPIFGTTIFAQKFQGRVTITADESTTTAYMELSSLRSDDTAVYYCARGGGGVERGVILTRWFDPWGQGTLVTVSS
VL: QSVLTQPPSVSAAPGQKVTLSCSGSSSNIGNNHVSWYQQLPGTAPKLLIYDNNKRPSGIPDRFSGSKSGTSATLGITGLQTGDEADYYCGTWDNSLSAGVFGGGTKLTVV
notes: also called N5 hmAb
For orientation: Kd means a measure of binding affinity in units of concentration. A higher Kd goes with lower affinity. As a reminder, the koff is a measure of how fast the partners let go of each other. High values mean a short-lived complex, low ones a long-lived complex. As usually defined, the kon is a measure of how fast the partners come together. Low readings indicate slow association, high ones fast association. Turning to B1, the binding result in assay [1] is “no binding (tested: 10 µg/ml)”. In addition, in assay [2], the binding result is listed as “binds”. Besides, in assay [3], the Kd was below 0.001 nM, the koff was below 1e-07 s⁻¹ and the kon is 137000 M⁻¹ s⁻¹.

B2: N31 (antibody, V domains shown)
VH: QMQLVQSGAEVKKPGSSVKVSCKASGGTFSSYGISWVRQAPGQGLEWMGGIIPILGTANYAQRFQGRIALTADESTSTAYMEVSSLRSEDTAVYYCARGMWSNPPGYCCSYMDVWGKGTTVTVSS
VL: EIVLTQSPATLSVSPGERVTLACRASQSLRSKLAWYQQKPGQAPRLLIYDASTRATGFPARFSGSGSGTEFTLTISSLQSEDFAVYYCQQYSNWPRTFGQGTKLEIK
notes: also called N31 hmAb
As to B2, the binding result in assay [1] is reported as “no binding (tested: 10 µg/ml)”. In addition, in assay [2], the binding result is listed as “binds”. Also, in assay [3], the Kd was below 0.001 nM, the koff is below 1e-07 s⁻¹ and the kon was determined as 174000 M⁻¹ s⁻¹.

B3: N3 (antibody, V domains shown)
VH: QMQLVQSGAEVKRPGSSVKVSCKASGGTFSVYAISWVRQAPGQGLEWMGGIIPIFGTANYAQKFQGRVTLTADESTSTAYMELSSLSSEDTAVYYCARGGYCSGANCPKWGEWSHSYNYMDVWGKGTTVTVSS
VL: not shown
notes: also called N3 hmAb
For the molecule B3, the binding result in assay [1] is given as “no binding (tested: 10 µg/ml)”. In addition, the binding result in assay [2] was “binds”. Besides, in assay [3], the Kd was below 0.001 nM, the koff is below 1e-07 s⁻¹ and the kon was found to be 157000 M⁻¹ s⁻¹.

B4: 3B7 (antibody, V domains shown)
VH: QMQLVQSGAEVKKPGASVRVSCKVSGYSLTELPMHWVRQAPGKGLEWVGSFDPQDAETTYAQRFQGRVAMTEDTSTDTAYMELSSLRSEDTAVYYCATPAPTIVGVVIYALHIWGQGTMVTVSS
VL: EIVLTQSPGTLSLSPGERATLSCRASQRVSDNSLAWYQQKPGQAPSLLIFAASIRAPGIPDRISGTGSGTDFTLTINRLEPEDFVVYFCLQYTTSPPLTFGGGTKLEIK
notes: also called 3B7 hmAb
As for B4, the binding result in assay [1] is “no binding (tested: 10 µg/ml)”. The binding result in assay [2] was “binds”. In assay [3], this molecule came in with a dissociation constant Kd of 1.94 nM, a koff of 0.000689 s⁻¹ and an association rate constant (kon) of 355000 M⁻¹ s⁻¹.

B5: N83 (antibody, V domains shown)
VH: QVQLQESGPRLVKSSETLSLTCTVSGGSISSGSYYWNWIRQPAGKGLEWIGRVYISGVTSYNPSLKSRVTISLDISKNQFSLQLTSVTAADSAVYYCARGGMAVGAPLYYYFYGMDVWGQGTTVTVSS
VL: DVVMTQSPLSLPVTPGEPASISCRSSQSLLHSNGYNYVDWYLQKPGQSPQLMIYLGSNRASGVPDRFSGSGSGTHFTLKISRVEAEDVGVYYCMQALQTLSITFGQGTRLEIK
notes: also called N83 hmAb
B5: the binding result in assay [1] is listed as “no binding (tested: 10 µg/ml)”. In addition, in assay [2], the binding result is on record as “binds”. In assay [3], the dissociation constant (Kd) worked out at 1.76 nM, the koff was 0.00113 s⁻¹ and the kon stood at 639000 M⁻¹ s⁻¹.
